The source of these data is publication PMC3741120, “A Sperm–Plasma β-N-Acetyl-D-Hexosaminidase Interacting with a Chitinolytic β-N-Acetyl-D-Hexosaminidase in Insect Molting Fluid” (PLoS ONE, 2013).

Substrate in data set [1]: CC(=O)N[C@H]1[C@H](Oc2ccc([N+](=O)[O-])cc2)O[C@H](CO)[C@H](O)[C@@H]1O
Briefly: purified protein. In kind it is biochemical, Ostrinia furnacalis. The conditions noted are these: Britton-Robinson buffer (pH of kinetics not given), 25°C, 30 min.

Substrate in data set [2]: CC(=O)N[C@H]1[C@H](Oc2ccc([N+](=O)[O-])cc2)O[C@H](CO)[C@@H](O)[C@@H]1O
In words: purified protein. The format is biochemical, Ostrinia furnacalis. To be noted: Britton-Robinson buffer (pH of kinetics not given), 25°C, 30 min.

B1: OfHex3 (Ostrinia furnacalis) (protein)
chain: NENEIKDPTPIVYEPSWVFKCIPNVGCQRAAHPQSMMTTNSSHVFYDSIDLCRTVCGRFGGIWPKPLTAGLSMQTVQMHPTHLRYDLSDVPAEARELIAQMTQVASSNLLAECRGNVTEVVDTPVVVYLVVTSENLDLTWDTDEKYDLDVQTKNQKVSVTITAATVYGARHGLETFTQLVTADRPEYSDQTRCALRVISGARIKDYPAYRHRGLVLDTSRHFIPMKDIKRTIDGMAASKLNVFHWHVTDSHSFPLESTRVPQFTRYGAYSSSEIYSAEEVRQLIKYAQIRGVRVVIEIDSPAHAGNGWQWGQDYGFGDLAVCVNTEPWRGLCIQPPCGQLNPANPTMYRVLRNLYKDLAEALPKPALFHMGGDEVFFPCWNSSEQIRAYMQEKGLNTTTEGFLRLWSEFHETILSIWDEELKAIGTDAQPVILWSSALTKSNYVQRFLNKDRYVIEVWEPLDSPLLMELLRLGYRTISVPKDVWYLDHGFWGSTKFSNWRRMYAYILPKSQHMLGGEVAMWSEYVDKEVLDTRIWPRAAAVAERLWADPMSTASAAEPRLQRFRSRLQARGLRPDAMSPAWCEQHDGRCL
notes: mature protein without signal peptide (residues 1-18 removed; ORF 609 residues); C-terminal 6xHis, N-terminal alpha-factor secretion signal; Pichia pastoris GS115; glycosylated, 75 kDa on SDS-PAGE
With B1, in “purified protein [1]”, the Michaelis constant (Km) turned out to be 2673 µM, the catalytic constant (kcat) is 5.63 s⁻¹ and the kcat/Km was found to be 2110 M⁻¹ s⁻¹. Moreover, in “purified protein [2]”, the Michaelis-Menten constant (Km) stood at 1627 µM, the turnover number (kcat) amounted to 27.7 s⁻¹ and the kcat/Km is 17000 M⁻¹ s⁻¹.

As a reminder, the Km is the concentration of substrate that gives half-maximal velocity. Usually kcat stands for the maximal rate divided by the concentration of active sites. As usually defined, the kcat/Km is the turnover number divided by the Michaelis constant.
